Measurements: patent US6794178

Target: microtubules

B1: Bacterially expressed and purified KinI-3 protein (protein)
chain: DCDIPIIQRISHVSGYNYGIPHSCIRQNTSEKQNPWTEMEKIRVCVRKRPLGMREVRRGEINIITVEDKETLLVHEKKEAVDLTQYILQHVFYFDEVFGEACTNQDVYMKTTHPLIQHIFNGGNATCFAYGQTGAGKTYTMIGTHENPGLYALAAKDIFRQLEVSQPRKHLFVWISFYEIYCGQLYDLLNRRKRLFAREDSKHMVQIVGLQELQVDSVELLLEVILKGSKERSTGATGVNADSSRSHAVIQIQIKDSAKRTFGRISFIDLAGSERAADARDSDRQTKMEGAEINQSLLALKECIRALDQEHTHTPFRQSKLTQVLKDSFIGNAKTCMIANISPSHVATEHTLNTLRYADRVKEL
In the case of B1, the “microtubule depolymerization (tubulin in supernatant after centrifugation, SDS-PAGE), AL + ATP/MT” value is reported as “Track 3 shows an increase in tubulin in the supernatant that indicates depolymerization in the presence of ATP”, the “microtubule depolymerization (tubulin in supernatant), AL + MT + ADP” value is reported as “No depolymerization was observed ... in the presence of ADP (track 6)” and the “microtubule depolymerization (tubulin in supernatant), AL + MT/AMPPNP” value is reported as “No depolymerization was observed ... in the presence of AMP-PNP (track 5)”. The “microtubule depolymerization (tubulin in supernatant), AL treated by Apyrase + MT” value was “No depolymerization was observed in the absence of ATP (track 4)”.
